Measurements: patent US20040171794A1 (DYAX, published 2004)

Biological target: T1, human neutrophil elastase (human, UniProt P08246 30-247, limits assumed)
T1 construct: also called HNE; hNE
T1 sequence (looked up): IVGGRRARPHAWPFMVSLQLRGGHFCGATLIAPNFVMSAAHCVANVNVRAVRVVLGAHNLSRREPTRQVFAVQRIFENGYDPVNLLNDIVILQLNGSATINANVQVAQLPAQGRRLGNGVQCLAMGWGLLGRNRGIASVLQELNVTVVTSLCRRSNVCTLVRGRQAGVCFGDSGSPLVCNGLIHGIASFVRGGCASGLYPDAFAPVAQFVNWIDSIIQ
Experiment: equilibrium inhibition of HNE activity on a fluorogenic peptide substrate, tight-binding model, 24 h incubation at 30 C
Method: Inhibition of hNE was determined at 30° C. in 50 mM HEPES, pH 7.5, 150 mM NaCl, and 0.1% Triton X-100. […] Residual enzymatic activities were determined from the relative rates of substrate hydrolysis. The hydrolysis reaction was initiated by addition of N-methoxysuccinyl-Ala-Ala-Pro-Val-7-amino-methylcoumarin (SEQ ID No.: 41) as substrate. Enzymatic cleavage of this substrate releases the methylcoumarin moiety with concomitant increase the sample fluorescence. The rate of substrate hydrolysis was monitored at an excitation of 360 nm and an emission of 460 nm. Plots of the percent remaining activity versus inhibitor concentration were fit by nonlinear regression analysis to Equation 1 to determine equilibrium dissociation constants.

B1: DX-890 (peptide)
chain: EACNLPIVRGPCIAFFPRWAFDAVKGKCVLFPYGGCQGNGNKFYSEKECREYCGVP
notes: also called native DX-890
  binding result: binds
